Source: patent US20250320252A1, “LONG-ACTING DUAL GIP/GLP-1 PEPTIDE CONJUGATES AND METHODS OF USE” (The Scripps Research Institute, priority 2021, published 2025)

Assays:
[1] = target: cynomolgus monkey GLP1R (cynomolgus monkey) (UniProt F8V479); assay: cell-based or functional assay
[2] = target: cynomolgus monkey GIPR (cynomolgus monkey); assay: cell-based or functional assay

Q: How did the In Vitro Potency GLP1R EC50 [nM], Cyno [1] turn out when Semaglutide (peptide) was run?
A: 0.13 nM

Q: How did the In Vitro Potency GIPR EC50 [nM], Cyno [2] turn out when Tirzepatide (peptide) was run?
A: 0.08 nM
